These results are taken from publication PMC5771576.

In series [1] the target is T1, Cys14 (UniProt position 14, AANWKCNGSQQ). Briefly: chemical modification. Particulars: not stated for the 1 min MMTS incubation (activity assay at 25°C); 100 mM TEA, 10 mM EDTA; ligand-free folded enzyme, 250 ug/mL.
Series [2] addresses T1, Cys14. Particulars: cited from earlier work.
For series [3], the target named is T2, Cys14 (UniProt position 15, AANWKCNGSES). Briefly: chemical modification. As to conditions: not stated for the 1 min MMTS incubation (activity assay at 25°C); 100 mM TEA, 10 mM EDTA; ligand-free folded enzyme, 250 ug/mL.
The target in series [4] is T2, Cys14. As to conditions: cited from earlier work.

Like-named read-outs stand apart in the source and are kept apart here.

One may read the pKa as the pH at which an ionisable group is half protonated.

On to “Triosephosphate isomerase (WT TbTIM) (Trypanosoma brucei)”, for which the values for the pKa in series [1] and in series [2] were 10.56 ± 0.22 and 10.53, respectively.
Turning to “Triosephosphate isomerase (WT TcTIM) (Trypanosoma cruzi)”, the figures for the pKa in series [3] and in series [4] were 9.24 ± 0.04 and 9.27, respectively.
As to “Triosephosphate isomerase triple mutant TbTIM: F28L, A100L, A115Q (Trypanosoma brucei; F28L;A100L;A115Q)”, the pKa in series [1] is 9.23 ± 0.03.
As to “Triosephosphate isomerase triple mutant TcTIM: L28F, L100A, Q115A (Trypanosoma cruzi; L28F;L100A;Q115A)”, the pKa in series [3] is recorded as 10.69 ± 0.01.
